Test results reported in article PMC10726160.

Biological target: GW182 (TNRC6A), short isoform (mouse (endogenous in OT-I CD8+ T cells))
Experiment: co-IP; anti-GW182 antibody on Protein G Dynabeads; lysates of naive (d0) and d6 activated OT-I CD8+ T cells, 2 x 10^7 cells per IP; bound and unbound fractions blotted with Ago2 and GW182 antibodies

percent of Ago2 associated with immunoprecipitated GW182 (d6): 50%
Substance: Argonaute 2 (Ago2) (from UniProt Q8CJG0 1-860) (natural protein)
